Test results reported in IntAct's records for PubMed 24525235.

Experiments:
[1] = target: twst1_human TWIST1 (UniProt Q15672)
[2] = target: twst1_human TWIST1 (UniProt Q15672); remark: listed apart in the source

effect of a mutation on the interaction [1] | effect of a mutation on the interaction [2] | Substance
increasing interaction strength | – | Bromodomain-containing protein 4 (Homo sapiens) (from UniProt O60885-1) D144H
– | decreasing interaction strength | Bromodomain-containing protein 4 (Homo sapiens) (from UniProt O60885-1) H437D
